What was measured:
PSF minRRMs = molecular target: T1, PSF minRRMs (human, UniProt P23246 299-449); assay: UV crosslinking competition; GST-TRAP150 PID (686-755), no inhibition; UV crosslinking: 12 mM Tris pH 7.5, 120 mM NaCl, 3 mM MgCl2, 1 mM ATP, 20 mM phosphocreatine, 0.1 mM EDTA, 12% glycerol, 1.3% PVA, 25 ng/ul yeast tRNA, 20 ng/ul; details: protein: recombinant; tags: 6xHis-FLAG N-term; label: uniform 32P
T1 sequence: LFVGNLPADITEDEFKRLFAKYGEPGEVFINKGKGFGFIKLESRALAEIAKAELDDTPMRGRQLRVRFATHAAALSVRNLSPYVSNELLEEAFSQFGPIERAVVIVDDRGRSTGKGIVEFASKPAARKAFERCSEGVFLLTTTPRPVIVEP

hnRNP L = molecular target: T2, hnRNP L (UniProt P14866 1-589); assay: as above; details: protein: recombinant; tags: 6xHis; label: uniform 32P
T2 sequence: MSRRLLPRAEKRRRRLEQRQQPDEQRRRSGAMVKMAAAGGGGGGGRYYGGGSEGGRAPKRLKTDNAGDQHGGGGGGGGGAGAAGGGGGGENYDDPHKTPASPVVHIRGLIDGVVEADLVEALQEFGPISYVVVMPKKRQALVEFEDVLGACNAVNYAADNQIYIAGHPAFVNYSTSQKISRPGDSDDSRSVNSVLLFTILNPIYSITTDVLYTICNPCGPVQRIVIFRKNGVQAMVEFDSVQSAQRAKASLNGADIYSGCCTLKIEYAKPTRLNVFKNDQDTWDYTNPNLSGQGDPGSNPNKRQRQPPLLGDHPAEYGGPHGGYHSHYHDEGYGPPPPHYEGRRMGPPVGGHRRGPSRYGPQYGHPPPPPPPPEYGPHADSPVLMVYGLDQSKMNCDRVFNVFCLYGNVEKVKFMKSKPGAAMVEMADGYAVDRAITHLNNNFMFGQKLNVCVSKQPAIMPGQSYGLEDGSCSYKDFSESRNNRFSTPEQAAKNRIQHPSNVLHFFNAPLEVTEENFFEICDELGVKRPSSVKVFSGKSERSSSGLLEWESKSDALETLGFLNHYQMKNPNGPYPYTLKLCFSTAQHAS

PSF exRRMs = molecular target: T3, PSF exRRMs (human, UniProt P23246 266-484); assay: EMSA; UV crosslinking: 12 mM Tris pH 7.5, 120 mM NaCl, 3 mM MgCl2, 1 mM ATP, 20 mM phosphocreatine, 0.1 mM EDTA, 12% glycerol, 1.3% PVA, 25 ng/ul yeast tRNA, 20 ng/ul; details: protein: recombinant; tags: 6xHis-FLAG N-term; label: uniform 32P
T3 sequence: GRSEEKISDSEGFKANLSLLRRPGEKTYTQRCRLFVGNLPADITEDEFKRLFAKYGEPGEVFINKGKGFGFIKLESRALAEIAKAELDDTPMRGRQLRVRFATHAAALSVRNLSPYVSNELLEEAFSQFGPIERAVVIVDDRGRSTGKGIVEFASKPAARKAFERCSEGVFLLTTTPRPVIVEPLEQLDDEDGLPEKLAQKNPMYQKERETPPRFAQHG

PSF exRRM2 = molecular target: T4, PSF exRRM2 (human, UniProt P23246 366-484); assay: EMSA; affinity similar to exRRMs; UV crosslinking: 12 mM Tris pH 7.5, 120 mM NaCl, 3 mM MgCl2, 1 mM ATP, 20 mM phosphocreatine, 0.1 mM EDTA, 12% glycerol, 1.3% PVA, 25 ng/ul yeast tRNA, 20 ng/ul; details: protein: recombinant; tags: 6xHis-FLAG N-term; label: uniform 32P
T4 sequence: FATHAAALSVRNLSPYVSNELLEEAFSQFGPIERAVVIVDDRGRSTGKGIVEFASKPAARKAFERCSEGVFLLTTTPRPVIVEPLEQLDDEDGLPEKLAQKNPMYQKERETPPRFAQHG

PSF full-length (PSF-FL) = molecular target: T5, PSF full-length (PSF-FL) (human, UniProt P23246 1-707); assay: UV crosslinking; higher affinity than exRRMs; UV crosslinking: 12 mM Tris pH 7.5, 120 mM NaCl, 3 mM MgCl2, 1 mM ATP, 20 mM phosphocreatine, 0.1 mM EDTA, 12% glycerol, 1.3% PVA, 25 ng/ul yeast tRNA, 20 ng/ul; details: protein: recombinant; tags: 6xHis-FLAG N-term; chain copies: 2; label: uniform 32P
T5 sequence: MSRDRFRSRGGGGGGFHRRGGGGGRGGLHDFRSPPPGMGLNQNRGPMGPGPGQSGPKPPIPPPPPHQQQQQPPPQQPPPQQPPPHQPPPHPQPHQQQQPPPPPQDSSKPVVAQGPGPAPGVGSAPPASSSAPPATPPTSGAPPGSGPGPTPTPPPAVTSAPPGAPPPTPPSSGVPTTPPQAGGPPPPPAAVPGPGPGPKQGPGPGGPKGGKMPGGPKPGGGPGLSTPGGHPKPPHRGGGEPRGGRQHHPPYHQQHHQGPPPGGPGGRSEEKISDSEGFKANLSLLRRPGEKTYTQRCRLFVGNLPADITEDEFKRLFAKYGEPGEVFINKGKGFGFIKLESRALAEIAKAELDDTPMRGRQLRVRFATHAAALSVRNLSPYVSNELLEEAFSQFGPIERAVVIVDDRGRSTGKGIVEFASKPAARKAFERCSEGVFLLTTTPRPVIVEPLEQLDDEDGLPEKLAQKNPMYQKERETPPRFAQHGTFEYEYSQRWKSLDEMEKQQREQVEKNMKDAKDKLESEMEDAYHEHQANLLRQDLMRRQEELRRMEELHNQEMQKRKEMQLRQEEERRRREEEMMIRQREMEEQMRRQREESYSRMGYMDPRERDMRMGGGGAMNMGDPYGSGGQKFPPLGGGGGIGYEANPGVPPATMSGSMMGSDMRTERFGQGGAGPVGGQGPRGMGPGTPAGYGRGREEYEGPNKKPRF

Measured: binding result

B1: ESS1 (ssRNA)
RNA: ACGCGUCCACUUUCAAGUGACCCCUUACCUACUCACACCACUGCAUUCUCACCCGCAAGCACCUUUGACGCGU
binds: all assays above

Source: PMC4605305, “TRAP150 interacts with the RNA-binding domain of PSF and antagonizes splicing of numerous PSF-target genes in T cells” (Nucleic Acids Research, 2015)
